B1: F20-VH-GL1-V4-V9/B08-VL-GL6c: VH SEQ ID NO: 19; VL SEQ ID NO: 70; reformatted as human IgG4; the F20-VH/B08-VLc variant of Examples 5-12 (antibody, V domains shown)
VH: EVQLVESGGGLVQPGRSLRLSCAASGFTFNDYPMHWVRQAPGKGLEWVSGISSRSGSVGYAESVKGRFTISRDNAKNSLYLQMNSLRAEDTALYYCARDKIYYGSGSYDFYYYYGMDVWGQGTTVTVSS
VL: QSALTQPASVSGSPGQSITISCTGTSNDVGAYNRVSWYQQHPGKAPKLMIYGVSNRPSGVSNRFSGSKSGNTASLTISGLQAEDEADFYCTSYSSSTTSYVVFGGGTKVTVL
modifications: human IgG4 format; heavy chain F20-VH-GL1-V4-V9; light chain B08-VL-GL6c
B2: F20-VH/B08-VLc: VH SEQ ID NO: 11; VL SEQ ID NO: 69; HO candidate selected for lead optimization; name also used loosely for its tested variant (antibody, V domains shown)
VH: EVQLVESGGGLVQPGRSLRLSCAASGFTFNDYPMHWVRQAPGKGLEWVSGISSNSGSVGYADSVKGRFTISRDNAKNSLYLQMNSLRDEDTAVYYCARDKIYYGSGSYDFYYYYGMDVWGQGTTVTVSS
VL: QSALTQPRSVSGSPGQSVTISCTGTSNDVGAYNRVSWYQQHPGKAPKLLIYGVSNRPSGVSTRFSGSKSGNTASLTISGLLAADEADFYCTSYSSSTTSYVVFGGGTKVTVL
modifications: heavy chain F20-VH; light chain B08-VLc

How the values were obtained:
[1] = target: Human MMP9 (i.e. activated MMP9) (Homo sapiens, UniProt P14780); test: MMP9 assay: DQ-gelatin digestion by pre-activated (caspase-cleaved) MMP9; assay type: biochemical; conditions: MMP9 assay with highly purified activated MMP9
Procedure: The functional neutralization of MMP9 catalytic activity towards the fluorogenic polymer substrate DQ-gelatin by some antibodies according to the invention was evaluated. The signature activity of MMP9 (and MMP2) is gelatin degradation. Gelatin is essentially an irreversibly denatured form derived from various collagens, several of which are considered key physiological substrates for MMP9. Unlike small peptidic substrates, the binding and recognition of gelatin (similar to that of collagen) by MMP9 is complex and known to be mediated via regions of the molecule other than the active site, including the fibronectin and PEX domains. In order to retain these physiologically relevant ‘exosite’ interactions and to facilitate the isolation of potential ‘non-classical’ allosteric neutralizer classes, a fluorogenically quenched soluble gelatin polymer (DQ-gelatin) was chosen as the key substrate for plate-based screening and ranking purposes. Substrate hydrolysis was mediated by truncated fragment of MMP9 (ie. pro-domain removed). The assay was performed in two modes. The first mode, named “MMP9 assay”, utilized pre-activated MMP9 (from engineered MMP9 containing a LETD caspase 8 recognition motif at the native cleavage junction) in which the pro-domain was first removed via directed caspase 8 cleavage. […]

MMP3-activated MMP9 [2] = target: T1, MMP3-activated MMP9 (Homo sapiens, UniProt P14780); test: Surface Plasmon Resonance (BIAcore) binding; conditions: for SPR binding to MMP3-activated MMP9 (in words): sensograms, 4.7 to 150 nM
Procedure: (§1) Sensorgrams of kinetics of binding are reported. Resonance unit (RU). All y axis-response (RU); all x axis-time (s).
(§2) Binding of anti-MMP9 antibodies towards recombinant human MMP9 antigen was characterized using standard Surface Plasmon Resonance (SPR) assay. In a first step, anti-MMP9 antibodies were captured by anti-human Fc antibody immobilized onto a BIAcore sensor chip. In a second step, pro-MMP9 or MMP3-activated MMP9 were titrated from 4.7 to 150 nM in 2-fold dilutions.

human pro-MMP9 [3] = target: T2, human pro-MMP9 (Homo sapiens, UniProt P14780); test: Surface Plasmon Resonance (BIAcore) binding; conditions: for SPR binding to pro-MMP9 (in words): sensograms, 4.7 to 150 nM
Procedure: as §1, §2

MMP3-activated MMP9 [4] = target: T1, MMP3-activated MMP9; test: Direct binding ELISA; conditions: biotinylated antibody, antigen coated at 2.5 μg/ml
Procedure: (§3) MMP9 antigens were coated at 2.5 μg/ml. Controls were streptavidin-HRP alone (closed triangles), or human IgG4 isotype control plus biotinylated anti-human-IgG second step Fab antibody (closed squares).
(§4) Direct binding capacities of anti-MMP9 antibodies towards human pro-MMP9 and MMP3-activated human MMP9, respectively, were assessed using a standard ELISA protocol. Briefly, 96-well plates were coated with (2.5 μg/ml) of either form of MMP9 for 16 h at room temperature.

human pro-MMP9 [5] = target: T2, human pro-MMP9; test: Direct binding ELISA; conditions: biotinylated antibody, antigen coated at 2.5 μg/ml
Procedure: as §3, §4

MMP3-activated MMP9 [6] = target: T1, MMP3-activated MMP9; test: Competitive binding ELISA; conditions: pre-incubation with 50 μg/mL purified antibody
Source text: For panels A, B, C, results are expressed as mean±SD of corrected absorbance (A450-A620) for each condition performed in duplicate.

[7] = system: MGC803 human gastric cancer cells; test: Cancer cell invasion through Matrigel-coated transwell; assay type: cell-based; conditions: 10 μg/ml antibody, PMA 100 ng/ml, 16 h
Procedure: MGC803 human gastric cancer cells were incubated with Phorbol 12-Myristate 13-Acetate (PMA) and with a broad chemical inhibitor of MMPs (GM-6001), anti-MMP9 antibody (F20-VH/B08-VLc), isotype control or medium alone. Invading cells were quantified after 16 hours using Calcein-AM. Each condition was performed in duplicates and means and SD of fluorescence units are reported.
Cancer cell line invasion was assessed using Matrigel-coated transwells. Insert membranes of transwells (provided in kit from Cultrex—3455-024) were coated with basement membrane extract (BME ×0.5; provided in Cultrex's kit) and incubated for 24 h at 37° C. Meanwhile, MGC803 (human gastric cancer cell line—Easy-Bio, China) were starved in RPMI culture medium (Gibco—52400025) deprived of serum (starving medium). […] One hundred μl of treated cells were seeded into Matrigel-coated transwells and 500 μl of RPMI medium containing 10% FCS were added in the lower side of the transwell. Plates were incubated for 16 h at 37° C. Invading cells were quantified by incubation of the bottom side of transwell membrane with Calcein-AM, whose cleavage into fluorescent Calcein is proportional to cell counts. Emitted fluorescent signal (Excitation at 485 nm, emission at 520 nm) reflects efficiency of cell invasion through Matrigel.

[8] = system: heterotopic intestinal grafts in C57BL/6 mice; test: Heterotopic transplant mouse model of intestinal fibrosis; assay type: in vivo
Procedure: Donor (green fluorescent protein-marked C57BL/6-Tg UBC-GFP mice) small bowel resections were transplanted subcutaneously into the neck of recipient C57BL/6 mice. Mice were injected intraperitoneally at day 5, 8 and 10 with 30 mg/kg of an anti-MMP9 antibody of the invention (F20-VH/B08-VLc, variant F20-VH-GL1-V4-V9/B08-VL-GL6c), or isotype control antibody (IgG4), 5 mice per group. Small bowel grafts were explanted 14 days after transplantation. After explant, each graft was divided into three equal segments. The central segment was fixed in 4% formalin, and prepared for histopathological assessment. The two outer segments were snap frozen in liquid nitrogen and stored at −70° C. until RNA or protein extraction.
Histologic cross sections were stained with Sirius red to highlight collagen (red stain). Collagen layer thickness was determined by an independent investigator blinded to the type of experiment. Microscopic assessment was done using an AxioCam MRc5 on a Zeiss Axiophot microscope. The thickness of the collagen layer was measured with the AxioVision Release 4.7.2 software (Zeiss). Thickness was calculated from eight places in representative areas (in eight samples investigated for each time point) at 100-fold magnification. Statistical analyses were performed using PRISM 6 software. Unpaired t test was used for comparison among groups.

[9] = system: DSS-induced colitis in BALB/c mice; test: DSS-induced colitis mouse model; assay type: in vivo; conditions: Day 14, vs isotype control
Procedure: The therapeutic efficacy of an anti-MMP9 antibody according to the invention was assessed in a DSS-induced colitis model in BALB/c mice. Colitis was induced with 4% (w/v) DSS in drinking water for 5 days. Doses of 30 mg/kg F20-VH/B08-VLc (variant F20-VH-GL1-V4-V9/B08-VL-GL6c) or isotype control (IgG4) antibodies were intraperitoneally injected to groups of 10 mice at day 6, 9 and 12, and animals were sacrificed at day 14.
The course of the disease was evaluated in blind fashion by video endoscopy of the lower colon at days 6, 10 and 14. Colitis was scored visually on a scale of 0-14 based on the degree of ulceration, vascularisation, and granularity present in tissue and colon length involved as follows: ulceration (0, 1, 2 or 3), masking of vascularisation (0, 1, 2 or 3), granularity (0, 1, 2 or 3), erythema (0, 1, 2 or 3), length involved (0, 1: localized, 2: diffuse). Each mouse was assigned a single endoscopy score corresponding to the damage observed throughout the entire length of the colon examined.
At study termination (Day 14), distal colon was excised from each mouse, formalin-fixed and embedded in paraffin and sectioned for histology. All sections were stained with haematoxylin and eosin and examined in a fashion blind as to treatment groups. Tissues were scored for epithelium damage and infiltration of inflammatory cells according to the scoring scale of […] for each parameter. The histology score represents the sum of the epithelium damage and infiltration of inflammatory cell scores, and thus ranges from 0 to 8.

T2 sequence (P14780 20-707): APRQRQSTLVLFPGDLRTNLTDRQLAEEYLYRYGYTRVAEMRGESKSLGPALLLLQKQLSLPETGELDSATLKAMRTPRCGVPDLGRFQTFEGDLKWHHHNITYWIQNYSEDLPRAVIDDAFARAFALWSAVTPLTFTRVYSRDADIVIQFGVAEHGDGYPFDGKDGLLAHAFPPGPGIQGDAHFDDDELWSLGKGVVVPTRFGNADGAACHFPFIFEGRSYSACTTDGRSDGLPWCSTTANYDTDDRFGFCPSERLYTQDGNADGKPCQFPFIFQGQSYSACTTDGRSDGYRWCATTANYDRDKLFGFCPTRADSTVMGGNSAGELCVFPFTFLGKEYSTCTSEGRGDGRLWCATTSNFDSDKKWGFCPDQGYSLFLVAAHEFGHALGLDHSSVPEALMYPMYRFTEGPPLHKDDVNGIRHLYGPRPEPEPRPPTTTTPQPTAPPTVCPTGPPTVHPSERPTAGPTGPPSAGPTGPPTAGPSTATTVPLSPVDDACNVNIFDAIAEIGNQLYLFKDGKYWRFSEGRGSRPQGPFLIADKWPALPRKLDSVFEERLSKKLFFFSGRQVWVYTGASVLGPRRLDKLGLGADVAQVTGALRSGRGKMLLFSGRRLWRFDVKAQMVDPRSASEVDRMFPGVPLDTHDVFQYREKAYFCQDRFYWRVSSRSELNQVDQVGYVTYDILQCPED
T1 sequence (P14780 107-707): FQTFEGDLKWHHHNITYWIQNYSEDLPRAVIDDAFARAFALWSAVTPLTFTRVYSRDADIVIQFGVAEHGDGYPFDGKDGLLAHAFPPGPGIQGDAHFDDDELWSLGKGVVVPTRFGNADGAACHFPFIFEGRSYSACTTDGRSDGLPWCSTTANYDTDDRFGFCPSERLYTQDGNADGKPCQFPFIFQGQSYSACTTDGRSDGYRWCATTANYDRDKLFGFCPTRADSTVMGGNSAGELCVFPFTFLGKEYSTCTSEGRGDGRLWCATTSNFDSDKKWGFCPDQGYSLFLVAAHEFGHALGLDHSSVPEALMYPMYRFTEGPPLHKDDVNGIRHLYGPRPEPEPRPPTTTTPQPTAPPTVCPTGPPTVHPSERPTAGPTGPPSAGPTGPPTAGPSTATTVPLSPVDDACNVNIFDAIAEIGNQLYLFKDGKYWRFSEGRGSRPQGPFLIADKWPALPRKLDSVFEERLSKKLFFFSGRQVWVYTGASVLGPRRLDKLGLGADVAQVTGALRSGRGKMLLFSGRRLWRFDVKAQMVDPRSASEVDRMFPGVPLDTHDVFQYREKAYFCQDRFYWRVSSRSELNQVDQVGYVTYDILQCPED
Human MMP9 (i.e. activated MMP9), sequence (P14780 107-707 limits assumed): as the sequence (P14780 107-707) above

| Molecule | decrease of DQ-gelatin digestion (in words) [1] | SPR binding to MMP3-activated MMP9 (in words) (MMP3-activated MMP9 [2]) | SPR binding to pro-MMP9 (in words) (human pro-MMP9 [3]) | ELISA direct binding to MMP3-activated MMP9 (in words) (MMP3-activated MMP9 [4]) | ELISA direct binding to pro-MMP9 (in words) (human pro-MMP9 [5]) | binding observed to pro-MMP9 (human pro-MMP9 [3]; SPR, at a 150 nM antibody concentration) | competition with biotinylated comparative antibody 1 for binding to MMP9 (in words) (MMP3-activated MMP9 [6]) | inhibition of migration of MGC803 cancer cells through Matrigel [7] | occlusion of the intestinal lumen of the graft ([8]; 14 days after transplantation) | Kd (MMP3-activated MMP9 [2]; SPR, MMP3-activated MMP9, calculated from the curves, read-out: KD (nM), antigen MMP9) | Kd (human pro-MMP9 [3]; SPR, antibody captured by anti-human Fc, calculated from the curves, read-out: KD (nM), antigen Pro-MMP9) | mean endoscopy score ([9]; 30 mg/kg i.p. day 6, 9, 12, p=0.005) | mean colitis severity score (histology) ([9]; 30 mg/kg i.p.) | mean score for epithelial damage ([9]; 30 mg/kg i.p.) | mean score for infiltration of inflammatory cells ([9]; 30 mg/kg i.p.) | loss of epithelial structure in heterotopic intestinal grafts ([8]; 30 mg/kg i.p. day 5, 8, 10, day 14, vs isotype control) | collagen layer thickness in heterotopic intestinal grafts ([8]; 30 mg/kg i.p. day 5, 8, 10, day 14, vs isotype control, p<0.0001) |
| --- | --- | --- | --- | --- | --- | --- | --- | --- | --- | --- | --- | --- | --- | --- | --- | --- | --- |
| comparative antibody 1: antibody known as AB0041, heavy chain SEQ ID NO: 44, light chain SEQ ID NO: 45; mouse monoclonal, WO 2013/130078 [reference compound] | inactive | bind well | binds well | strongly bind | binds well | – | – | – | – | – | – | – | – | – | – | – | – |
| B1 | – | bind well | minimal signal | strongly bind | only shows significant binding to pro-MMP9 at the highest concentration tested | < 1% | does not prevent binding of comparative antibody 1 | efficiently inhibits migration | partial occlusion of the intestinal lumen | – | – | – | – | – | – | – | – |
| B2 | – | – | – | – | – | – | – | – | – | 11.7 nM | > 15000 nM | significant improvement | decrease | decreased | decreased | significantly protects against loss of epithelial structure | reduces collagen layer thickness |

Source: patent US10364296B2, “Antibodies specific for MMP9” (CALYPSO BIOTECH SA, priority 2014, dated 2019)
